In paper PMC11727070, “Structure of the WIPI3/ATG16L1 Complex Reveals the Molecular Basis for the Recruitment of the ATG12~ATG5-ATG16L1 Complex by WIPI3” (Cells, 2024):

Molecular target: T1, GST-tagged WIPI3Δ (human, UniProt Q5MNZ6 8-344, without residues 264–281)
T1 construct: WIPI3, human, residues 8–344 with residues 264–281 removed; also called GST-WIPI3Δ; source: E. coli BL21 (DE3), purified (Ni-NTA, Superdex 200); not shown: GST, N-terminal, kept
Assay: SEC; competition: a pre-formed complex incubated with an increasing molar ratio of the competitor, then SEC; fractions analysed by SDS-PAGE with Coomassie staining
Settings: both partners purified

T1 sequence (Q5MNZ6 other isoform, or with tags, fused parts or gaps without residues 264–281 | without residues 264–281 | mutant): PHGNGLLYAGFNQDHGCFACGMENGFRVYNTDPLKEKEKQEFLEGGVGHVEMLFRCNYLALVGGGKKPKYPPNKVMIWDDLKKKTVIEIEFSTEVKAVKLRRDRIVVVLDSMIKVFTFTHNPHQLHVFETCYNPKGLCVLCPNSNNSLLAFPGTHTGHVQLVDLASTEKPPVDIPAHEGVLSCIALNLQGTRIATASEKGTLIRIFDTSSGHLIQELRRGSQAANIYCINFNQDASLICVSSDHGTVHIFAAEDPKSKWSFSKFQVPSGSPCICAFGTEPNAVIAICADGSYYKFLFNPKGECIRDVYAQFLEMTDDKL

Row | binding result | Binder
1 | binds | ATG16L1(78–206) (domain or fragment, human, UniProt Q676U5 78-206, looked up, Legends name it without Trx; source: E. coli BL21 (DE3), purified (Ni-NTA, Superdex 200)) NDNQLQEMAQLRIKHQEELTELHKKRGELAQLVIDLNNQMQRKDREMQMNEAKIAECLQTISDLETECLDLRTKLCDLERANQTLKDEYDALQITFTALEGKLRKTTEENQELVTRWMAEKAQEANRLN

Molecular target: T2, SUMO-tagged WIPI3^Δ (human WIPI3 residues 8–344 without residues 264–281) (human, UniProt Q5MNZ6 8-344, without residues 264–281)
T2 construct: WIPI3, human, residues 8–344 with residues 264–281 removed; the WIPI3(75–80) region is retained; also called SUMO-WIPI3^Δ; loop-truncated WIPI3; source: E. coli BL21 (DE3), purified (Ni-NTA, Superdex 200); not shown: SUMO, N-terminal, kept
T2 sequence (Q5MNZ6 other isoform, or with tags, fused parts or gaps without residues 264–281 | without residues 264–281 | mutant): as the sequence (Q5MNZ6 other isoform, or with tags, fused parts or gaps without residues 264–281 | without residues 264–281 | mutant) above
Assay: SEC; purified proteins alone and mixed, Superdex 200 Increase 10/300 GL or Superdex 75 10/300 GL on an AKTA FPLC; mixture profile compared with the theoretical sum; fractions checked by SDS-PAGE
Settings: both partners purified

Row | binding result | Binder
2 | binds | ATG16L1(124–197) (domain or fragment, human, UniProt Q676U5 124-197, looked up, source: E. coli BL21 (DE3), purified (Ni-NTA, Superdex 200)) MQMNEAKIAECLQTISDLETECLDLRTKLCDLERANQTLKDEYDALQITFTALEGKLRKTTEENQELVTRWMAE
3 | binds | ATG16L1(78–197) (domain or fragment, human, UniProt Q676U5 78-197, looked up, source: E. coli BL21 (DE3), purified (Ni-NTA, Superdex 200)) NDNQLQEMAQLRIKHQEELTELHKKRGELAQLVIDLNNQMQRKDREMQMNEAKIAECLQTISDLETECLDLRTKLCDLERANQTLKDEYDALQITFTALEGKLRKTTEENQELVTRWMAE
4 | binds | ATG16L1(124–188) (domain or fragment, human, UniProt Q676U5 124-188, looked up, Parallel coiled-coil dimer in the crystal; also called ATG16L1 coiled-coil; source: E. coli BL21 (DE3), purified (Ni-NTA, Superdex 200)) MQMNEAKIAECLQTISDLETECLDLRTKLCDLERANQTLKDEYDALQITFTALEGKLRKTTEENQ
5 | binds | ATG16L1(78–247) (domain or fragment, human, UniProt Q676U5 78-247, looked up, Legends name it without Trx (while ATG2A is named Trx-ATG2A), so the tag may have been cleaved; also called central region of ATG16L1; source: E. coli BL21 (DE3), purified (Ni-NTA, Superdex 200)) NDNQLQEMAQLRIKHQEELTELHKKRGELAQLVIDLNNQMQRKDREMQMNEAKIAECLQTISDLETECLDLRTKLCDLERANQTLKDEYDALQITFTALEGKLRKTTEENQELVTRWMAEKAQEANRLNAENEKDSRRRQARLQKELAEAAKEPLPVEQDDDIEVIVDET
6 | binds | ATG16L1(78–206) (domain or fragment, human, UniProt Q676U5 78-206, looked up, Legends name it without Trx; source: E. coli BL21 (DE3), purified (Ni-NTA, Superdex 200)) NDNQLQEMAQLRIKHQEELTELHKKRGELAQLVIDLNNQMQRKDREMQMNEAKIAECLQTISDLETECLDLRTKLCDLERANQTLKDEYDALQITFTALEGKLRKTTEENQELVTRWMAEKAQEANRLN
